Data on three molecules can be found in patent US6525022B1, “Receptor specific atrial natriuretic peptides” (Genentech, Inc., priority 1993, dated 2003).

Bridges are numbered along the chain shown (N, C = ends). Where no end group is shown, it is not given here.

Data set [1] deals with human NEP (hNEP), endopeptidase 24.11 (Homo sapiens, UniProt P08473). Briefly: in vitro. The conditions noted are these: Half-Life (min.).
Experimental: The half-life of various ANF variants was measured according to the following procedure.
ANF Solution: An accurately weighed amount of ANF or variant thereof was diluted with HEPES buffer (5 ml of 1 M HEPES Buffer and 0.1 ml of Tween 20 diluted to a 100 ml volume with DI water) to make a 0.5 mg/ml solution.
hNEP/HEPES Solution: 7.5 μl of a 1 mg/ml solution of hNEP (see U.S. Pat. No. 4,960,700) is dissolved in 992.5 μl of HEPES buffer (as described above) and vortex mixed. The resulting mixture is stored in a silylated Eppendorf tube and periodically checked for activity against an ANF peptide standard.
Assay conditions: 150 μl of an ANF solution in the HEPES buffer is diluted with 820 μl HEPES buffer and vortex mixed (1 sec). Careful note of the time is taken as 30 μl of the hNEP/HEPES solution is added and the solution is vortex mixed for 1 sec. and analyzed by periodic removal of constant volume aliquots by the HPLC autosampler. A 2.5 cm×50 cm, C-18 reversed-phase column (15 micron, 300 Å]) was used and elution was achieved by using a shallow gradient of increasing acetonitrile. The elution conditions consisted of a 10% to 50% acetonitrile (containing 0.1% TFA) gradient at 0.5% min.^−1. The aqueous phase was 0.1% TFA in water. The peak area of the ANP peptide is recorded at these periodic intervals and a half-life is determined from these values.
Data set [2] has as its target human neutral endopeptidase 24.11 (human) (UniProt P08473). Briefly: cell-based or functional assay.
The target in data set [3] is human natriuretic peptide receptor-A (human) (UniProt P16066). The experiment in a line: competition binding, Table I; tracer and receptor format not given.
Data set [4] concerns the target T1, human natriuretic peptide clearance receptor-C (human) (UniProt P17342).
T1 sequence (looked up): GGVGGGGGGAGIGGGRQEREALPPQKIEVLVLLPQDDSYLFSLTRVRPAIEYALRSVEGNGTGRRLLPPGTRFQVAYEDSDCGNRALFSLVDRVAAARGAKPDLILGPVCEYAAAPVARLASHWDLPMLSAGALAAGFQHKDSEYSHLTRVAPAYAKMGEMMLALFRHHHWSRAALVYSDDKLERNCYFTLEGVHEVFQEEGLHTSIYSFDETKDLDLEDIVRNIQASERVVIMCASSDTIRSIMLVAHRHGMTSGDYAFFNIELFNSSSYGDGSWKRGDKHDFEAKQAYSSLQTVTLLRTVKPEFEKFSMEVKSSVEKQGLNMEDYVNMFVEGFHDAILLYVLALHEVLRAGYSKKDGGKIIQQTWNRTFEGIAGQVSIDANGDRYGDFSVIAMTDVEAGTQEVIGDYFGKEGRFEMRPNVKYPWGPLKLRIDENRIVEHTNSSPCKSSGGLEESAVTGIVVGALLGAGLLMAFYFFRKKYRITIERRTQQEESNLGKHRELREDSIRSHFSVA
The description is as above.

Data set [5] deals with T2, human natriuretic peptide clearance receptor-C (human, UniProt P17342 27-541).
T2 construct: whole, on cells; also called hNPR-C; human NPR-C
T2 sequence (looked up): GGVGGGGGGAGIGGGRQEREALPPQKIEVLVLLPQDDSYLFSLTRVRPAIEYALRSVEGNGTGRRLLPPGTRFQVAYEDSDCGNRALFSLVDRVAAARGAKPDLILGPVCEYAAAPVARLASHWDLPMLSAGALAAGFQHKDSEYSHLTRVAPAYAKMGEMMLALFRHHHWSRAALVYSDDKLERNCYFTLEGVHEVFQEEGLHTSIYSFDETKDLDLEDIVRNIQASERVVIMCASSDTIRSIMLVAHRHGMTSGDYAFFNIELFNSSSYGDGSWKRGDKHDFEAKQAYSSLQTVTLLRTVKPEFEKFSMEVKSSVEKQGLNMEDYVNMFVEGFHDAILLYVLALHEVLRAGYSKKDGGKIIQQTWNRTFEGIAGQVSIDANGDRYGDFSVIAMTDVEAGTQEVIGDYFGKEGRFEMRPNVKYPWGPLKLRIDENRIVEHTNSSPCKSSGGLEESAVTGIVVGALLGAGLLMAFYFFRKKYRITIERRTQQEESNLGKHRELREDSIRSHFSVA
The experiment in a line: analysis of variants in receptor binding.

Chain of human neutral endopeptidase 24.11 (human) (P08473 2-750 limits assumed): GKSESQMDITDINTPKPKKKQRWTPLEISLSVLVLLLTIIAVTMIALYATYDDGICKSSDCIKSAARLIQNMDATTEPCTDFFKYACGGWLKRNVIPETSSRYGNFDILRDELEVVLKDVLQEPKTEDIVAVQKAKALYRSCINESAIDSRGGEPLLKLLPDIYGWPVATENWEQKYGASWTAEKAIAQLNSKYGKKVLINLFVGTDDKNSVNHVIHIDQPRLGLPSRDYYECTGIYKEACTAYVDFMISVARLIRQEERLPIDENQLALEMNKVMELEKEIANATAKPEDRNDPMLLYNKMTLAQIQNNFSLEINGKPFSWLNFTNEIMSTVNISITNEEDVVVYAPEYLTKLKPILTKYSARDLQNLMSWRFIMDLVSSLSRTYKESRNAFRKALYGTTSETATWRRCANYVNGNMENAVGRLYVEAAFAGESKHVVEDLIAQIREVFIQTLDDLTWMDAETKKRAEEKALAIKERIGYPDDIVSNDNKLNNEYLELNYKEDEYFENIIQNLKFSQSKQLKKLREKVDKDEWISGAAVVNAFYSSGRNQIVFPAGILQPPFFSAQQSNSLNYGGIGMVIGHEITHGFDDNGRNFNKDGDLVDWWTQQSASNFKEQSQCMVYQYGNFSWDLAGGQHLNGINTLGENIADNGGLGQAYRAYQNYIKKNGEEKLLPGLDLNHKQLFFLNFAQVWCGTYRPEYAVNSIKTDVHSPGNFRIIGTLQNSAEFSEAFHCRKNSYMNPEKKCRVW
Chain of human NEP (hNEP), endopeptidase 24.11 (P08473 whole entry): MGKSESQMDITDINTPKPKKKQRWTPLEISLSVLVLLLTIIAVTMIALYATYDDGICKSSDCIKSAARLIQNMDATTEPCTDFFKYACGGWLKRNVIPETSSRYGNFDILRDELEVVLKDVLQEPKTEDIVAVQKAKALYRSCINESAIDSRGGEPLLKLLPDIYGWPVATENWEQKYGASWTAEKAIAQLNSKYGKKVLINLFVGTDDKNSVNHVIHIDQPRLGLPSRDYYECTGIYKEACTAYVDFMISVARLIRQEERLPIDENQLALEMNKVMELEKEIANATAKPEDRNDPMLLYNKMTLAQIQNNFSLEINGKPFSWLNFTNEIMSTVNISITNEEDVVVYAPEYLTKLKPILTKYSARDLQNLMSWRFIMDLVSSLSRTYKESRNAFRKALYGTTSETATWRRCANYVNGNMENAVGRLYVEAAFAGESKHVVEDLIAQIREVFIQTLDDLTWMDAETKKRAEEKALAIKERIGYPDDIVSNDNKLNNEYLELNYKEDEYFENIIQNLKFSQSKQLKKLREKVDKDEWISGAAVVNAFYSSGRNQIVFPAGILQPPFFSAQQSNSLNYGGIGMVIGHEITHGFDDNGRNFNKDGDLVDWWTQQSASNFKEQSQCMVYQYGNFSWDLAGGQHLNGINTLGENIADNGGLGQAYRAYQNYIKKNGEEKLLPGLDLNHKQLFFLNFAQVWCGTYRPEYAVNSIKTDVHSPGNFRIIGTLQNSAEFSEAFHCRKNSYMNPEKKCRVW

In data set [1], `CC[C@H](C)[C@@H]1NC(=O)[C@H](CCCNC(=N)N)NC(=O)[C@H](CC(=O)O)NC(=O)[C@H]([C@@H](C)CC)NC(=O)[C@H](CO)NC(=O)CNC(=O)[C@H]([C@@H](C)O)NC(=O)[C@H](Cc2ccccc2)N(C)C(=O)[C@@H](NC(=O)[C@H](CO)NC(=O)[C@H](CO)NC(=O)[C@H](CCCNC(=N)N)NC(=O)[C@H](CCCNC(=N)N)NC(=O)[C@H](CC(C)C)NC(=O)[C@@H](N)CO)CSSC[C@@H](C(=O)N[C@@H](CC(N)=O)C(=O)N[C@@H](CO)C(=O)N[C@@H](Cc2ccccc2)C(=O)N[C@@H](CCCNC(=N)N)C(=O)N[C@@H](Cc2ccc(O)cc2)C(=O)O)NC(=O)CNC(=O)[C@H](CC(C)C)NC(=O)CNC(=O)[C@H](CO)NC(=O)[C@H](CCC(N)=O)NC(=O)[C@H](C)NC(=O)[C@H](CCCNC(=N)N)NC1=O` [ANF 83] registered a half-life at 32 nM/ml of 15.5 h.
Regarding ANF 31 (peptide), in data set [2], the Half-Life was found to be 2.97 h. Besides, the IC50 in data set [3] stood at 0.052 nM; in data set [4] it was 3210 nM.
Turning to SLRRSSCFGGRMDRIRAQSGLGCNSFRY (disulfide 7-23 (inferred), also called hANF G16R) [hANF(1-28) G16R], the “fold reduction of affinity against wild type” value in data set [5] is approximately 150 fold.
